The values below come from the supplement of paper PMC5998384.

Data set [1] has as its system HeLa Kyoto. Kind of data set: solubility in G1/S (NP-40 vs SDS abundance) (log2 ratio); higher = more soluble. As to conditions: cell cycle stage: G1/S.
The test system of data set [2] is HeLa Kyoto. As to the kind of experiment: melting temperature (median over replicates), in situ; higher = more thermally stable.
In data set [3] the test system is HeLa Kyoto. Kind of data set: solubility change mitosis vs G1/S (difference of NP-40 vs SDS log2 ratios) (log2 ratio difference); higher = more soluble in mitosis.
The subject of data set [4] is HeLa Kyoto. As to the kind of experiment: thermal stability score vs G1/S (z-score of summed log2 fold changes over temperatures); higher = more thermally stable than in G1/S.
Where [5] appears, read: cell cycle stage: early G1 (4.5 h after nocodazole release).
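For melting temperature (median over replicates), in situ in this document: HeLa Kyoto cells synchronized by double thymidine or nocodazole block, proteins quantified by TMT10plex mass spectrometry, three independent biological replicates.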
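For solubility change mitosis vs G1/S (difference of NP-40 vs SDS log2 ratios) in this document: synchronized HeLa Kyoto cells (double thymidine block for G1/S, nocodazole release for mitosis), protein amounts in NP-40 versus SDS lysates quantified by mass spectrometry, three biological replicates.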
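For solubility in G1/S (NP-40 vs SDS abundance) in this document: HeLa Kyoto cells arrested at G1/S by double thymidine block, proteins quantified by TMT10plex mass spectrometry in mild NP-40 versus SDS extracts, three biological replicates.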
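For thermal stability score vs G1/S (z-score of summed log2 fold changes over temperatures) in this document: synchronized HeLa Kyoto cells, proteins quantified by TMT10plex mass spectrometry, three biological replicates, mitosis taken 0.5 h after nocodazole release, G1/S directly after double thymidine block.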

For the substance “MEAAVAAPRPRLLLLVLAAAAAAAAALLPGATALQCFCHLCTKDNFTCVTDGLCFVSVTETTDKVIHNSMCIAEIDLIPRDRPFVCAPSSKTGSVTTTYCCNQDHCNKIELPTTVKSSPGLGPVELAAVIAGPVCFVCISLMLMVYICHNRTVIHHRVPNEEDPSLDRPFISEGTTLKDLIYDMTTSGSGSGLPLLVQRTIARTIVLQESIGKGRFGEVWRGKWRGEEVAVKIFSSREERSWFREAEIYQTVMLRHENILGFIAADNKDNGTWTQLWLVSDYHEHGSLFDYLNRYTVTVEGMIKLALSTASGLAHLHMEIVGTQGKPAIAHRDLKSKNILVKKNGTCCIADLGLAVRHDSATDTIDIAPNHRVGTKRYMAPEVLDDSINMKHFESFKRADIYAMGLVFWEIARRCSIGGIHEDYQLPYYDLVPSDPSVEEMRKVVCEQKLRPNIPNRWQSCEALRVMAKIMRECWYANGAARLTALRIKKTLSQLSQQEGIKM [TGFBR1]”, the “solubility in G1/S (log2)” value with HeLa Kyoto [1] is -0.00326. In addition, the results for the melting temperature in the data set with HeLa Kyoto [2] (cell cycle stage: G1/S) and in the data set on HeLa Kyoto [2] (cell cycle stage: mitosis) were 50.2 °C and 50.8 °C, respectively. Further, the “solubility change mitosis (log2)” value in the data set on HeLa Kyoto [3] is -0.101. For the same substance, the thermal stability score with HeLa Kyoto [4] (setting [5]) is 0.718; in the data set on HeLa Kyoto [4] (cell cycle stage: mitosis), 0.929.
Take “MAEGNHRKKPLKVLESLGKDFLTGVLDNLVEQNVLNWKEEEKKKYYDAKTEDKVRVMADSMQEKQRMAGQMLLQTFFNIDQISPNKKAHPNMEAGPPESGESTDALKLCPHEEFLRLCKERAEEIYPIKERNNRTRLALIICNTEFDHLPPRNGADFDITGMKELLEGLDYSVDVEENLTARDMESALRAFATRPEHKSSDSTFLVLMSHGILEGICGTVHDEKKPDVLLYDTIFQIFNNRNCLSLKDKPKVIIVQACRGANRGELWVRDSPASLEVASSQSSENLEEDAVYKTHVEKDFIAFCSSTPHNVSWRDSTMGSIFITQLITCFQKYSWCCHLEEVFRKVQQSFETPRAKAQMPTIERLSMTRYFYLFPGN [CASP4]”: in the data set with HeLa Kyoto [1], the “solubility in G1/S (log2)” value turned out to be 0.0521. In the data set on HeLa Kyoto [2] (cell cycle stage: mitosis), this substance displayed a melting temperature of 50.5 °C. The “solubility change mitosis (log2)” value with HeLa Kyoto [3] was -0.0831. Moreover, the results for the thermal stability score with HeLa Kyoto [4] (setting [5]) and in the data set with HeLa Kyoto [4] (cell cycle stage: mitosis) were 0.457 and 0.45, respectively.
As for “MGVTCVSQMPVAEGKSVQQTVELLTRKLEMLGAEKQGTFCVDCETYHTAASTLGSQGQTGKLMYVMHNSEYPLSCFALFENGPCLIADTNFDVLMVKLKGFFQSAKASKIETRGTRYQYCDFLVKVGTVTMGPSARGISVEVEYGPCVVASDCWSLLLEFLQSFLGSHTPGAPAVFGNRHDAVYGPADTMVQYMELFNKIRKQQQVPVAGIR [MED20]”, the “solubility in G1/S (log2)” value in the data set on HeLa Kyoto [1] was found to be 0.339. The melting temperature with HeLa Kyoto [2] (cell cycle stage: G1/S) is 51.7 °C; in the data set with HeLa Kyoto [2] (cell cycle stage: mitosis), 52.7 °C. Further, the “solubility change mitosis (log2)” value in the data set on HeLa Kyoto [3] is -0.0509. The thermal stability score in the data set on HeLa Kyoto [4] (setting [5]) is -0.587; in the data set with HeLa Kyoto [4] (cell cycle stage: mitosis) it was -0.494.
Consider “MVQAWYMDDAPGDPRQPHRPDPGRPVGLEQLRRLGVLYWKLDADKYENDPELEKIRRERNYSWMDIITICKDKLPNYEEKIKMFYEEHLHLDDEIRYILDGSGYFDVRDKEDQWIRIFMEKGDMVTLPAGIYHRFTVDEKNYTKAMRLFVGEPVWTAYNRPADHFEARGQYVKFLAQTA [ADI1]”, for which the “solubility in G1/S (log2)” value in the data set with HeLa Kyoto [1] is 0.18. The melting temperature in the data set with HeLa Kyoto [2] (cell cycle stage: G1/S) and with HeLa Kyoto [2] (cell cycle stage: mitosis) was 51.1 °C in each case. The “solubility change mitosis (log2)” value in the data set with HeLa Kyoto [3] was -0.0474. Further, the thermal stability score in the data set on HeLa Kyoto [4] (setting [5]) was -0.911; with HeLa Kyoto [4] (cell cycle stage: mitosis), -0.735.
For SLC27A2, in the data set with HeLa Kyoto [1], the “solubility in G1/S (log2)” value is -0.335. The melting temperature is 50 °C in the data set with HeLa Kyoto [2] (cell cycle stage: G1/S) and 50.3 °C in the data set on HeLa Kyoto [2] (cell cycle stage: mitosis). The “solubility change mitosis (log2)” value in the data set on HeLa Kyoto [3] is -0.133. Further, the thermal stability score was determined as 2.25 in the data set on HeLa Kyoto [4] (setting [5]) and 2.44 with HeLa Kyoto [4] (cell cycle stage: mitosis).
Regarding “MVHQVLYRALVSTKWLAESIRTGKLGPGLRVLDASWYSPGTREARKEYLERHVPGASFFDIEECRDTASPYEMMLPSEAGFAEYVGRLGISNHTHVVVYDGEHLGSFYAPRVWWMFRVFGHRTVSVLNGGFRNWLKEGHPVTSEPSRPEPAVFKATLDRSLLKTYEQVLENLESKRFQLVDSRSQGRFLGTEPEPDAVGLDSGHIRGAVNMPFMDFLTEDGFEKGPEELRALFQTKKVDLSQPLIATCRKGVTACHVALAAYLCGKPDVAVYDGSWSEWFRRAPPESRVSQGKSEKA [TST]”, the “solubility in G1/S (log2)” value with HeLa Kyoto [1] was 0.187. Besides, the melting temperature in the data set with HeLa Kyoto [2] (cell cycle stage: G1/S) is 48.3 °C; in the data set on HeLa Kyoto [2] (cell cycle stage: mitosis), 49.3 °C. The “solubility change mitosis (log2)” value in the data set with HeLa Kyoto [3] is -0.0824. The figures for the thermal stability score with HeLa Kyoto [4] (setting [5]) and in the data set on HeLa Kyoto [4] (cell cycle stage: mitosis) were 5.41 and 3.98, respectively.
